Measurements published in US20260015426A1.

B1: 10A11 (purified mAb from hybridoma 10A11) (antibody, V domains shown)
VH: EVQLQQSGAELVKPGASVRLSCTSSGFNIKDYFMHWVKQRTEQGLEWVGRIDPEDGETQYAPNFQDKATITVDTSSNTVYLQLSSLTSEDTAVYYCFRPLYYGNSPWFAYWGQGTLVTVSP
VL: DIQMTQTTSSLSASLGDRVTISCRASQDISNYLNWYQQKPDGTVKLLIYYTSTLHSGVPSRFSGSGSGTDYSLTISNLEPEDIATYYCHQYSKFPPTFGSGTKLEIK
B2: 8H1 (purified mAb from hybridoma 8H1) (antibody, V domains shown)
VH: QVQLQQSGPELVKSGASVRISCKASGYAFSGSWMNWVKQRPGKGLEWIGRIYPGDGNTNYNGKFKDKATLTADKSSSTAFMQLSSLTSEDSAVYFCARDYYLFYFDYWGQGTTLTVSS
VL: NIVMTQTPKFLPVAAEDRVIITCKASQDVSNEVAWYQQKPGQSPKLLMYYASNRYTGVPDRFTGSGSGTDFTFTISSVQVEDLAVYFCQQHYSSPLTFGAGTKLELK
B3: 9D5 (purified mAb from hybridoma 9D5) (antibody, V domains shown)
VH: QVQLQQSGAELARPGASVKFSCKASGYTFTSYWMQWVKQRPGQGLEWIGTIYPGDGNTRYTQKFKGKATLTADKSSSTAYMQLSGLASEDSAVYYCARGYFGNLVFDVWGAGTTVTVSS
VL: DIKMTQSPSSMYASLGERVTITCKASQDINTYLSWFLQKPGKSPKTLIYRADRLVDGVPSRFSGGGSGQDYSLTISSLEYEDLGIYYCLQYDEFPYTFGSGTKLEIK
B4: 11C5(Hy) (purified mAb from the 11C5 hybridoma) (antibody, V domains shown)
VH: EVQLVESGGGLVKPGGSLKLSCAASGFTFSNYAMSWVRQTPEKRLEWVATVTEGGDYNYCLDDVKGRFTISRDNANDNLYLQMSHLKSEDSARYYCARDRWPYFFDYWGQGTTLTVSS
VL: DIQMTQSPASLSVSVGETVTITCRASENIYSNLAWYQQKQGRSPQLLVYGAKNLADGVPSRFSGSGSGTQYSLNINSLQSEDFGTYYCQHFWTTPRTFGGGTKLEIK
B5: 13D8 (purified mAb from hybridoma 13D8) (antibody, V domains shown)
VH: EVQLVESGGGLVKPGGSLKLSCTASGFTFSNYAMSWVRQTPEKRLEWVATISDGGNYTYYPDNVKGRFTISRDIAKNNLYLQMSHLKSEDTAMYYCARDRWPYFFDFWGQGTTLTVSS
VL: DIQMTQSPASLSVSVGETVTITCRASDNIYSNLAWYQEKQGKSPQLLVYGATNLADGVPSRFSGSGSGTQYSLKINSLQSEDFGSYYCQHFWTTPRSFGGGTKLELK

Tests used:
Assay in all cases: ELISA, mAb at 10 nM
[1] = biological target: hu-M-IL1RAP-D1 construct, positions S21-Q133 (human)
[2] = biological target: hu-M-IL1RAP-D1D2 construct, positions S21-P237 (human)
[3] = biological target: hu-M-IL1RAP-D3 construct, positions K238-T367 (human)
Chain of hu-M-IL1RAP-D3 construct, positions K238-T367 (human) (chain, as listed by the source limits assumed): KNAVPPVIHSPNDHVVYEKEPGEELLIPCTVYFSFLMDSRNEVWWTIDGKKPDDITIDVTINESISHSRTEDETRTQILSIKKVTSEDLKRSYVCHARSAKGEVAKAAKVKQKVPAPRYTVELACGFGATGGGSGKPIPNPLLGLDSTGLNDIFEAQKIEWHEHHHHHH

Chain of hu-M-IL1RAP-D1D2 construct, positions S21-P237 (human) (chain, as listed by the source limits assumed): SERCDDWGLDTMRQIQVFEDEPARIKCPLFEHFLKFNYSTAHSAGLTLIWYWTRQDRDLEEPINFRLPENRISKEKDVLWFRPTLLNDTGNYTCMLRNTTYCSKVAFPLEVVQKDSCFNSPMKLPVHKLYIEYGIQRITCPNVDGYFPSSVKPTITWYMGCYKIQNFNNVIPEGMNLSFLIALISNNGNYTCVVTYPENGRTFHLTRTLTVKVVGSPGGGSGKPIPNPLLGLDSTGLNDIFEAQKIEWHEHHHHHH
Chain of hu-M-IL1RAP-D1 construct, positions S21-Q133 (human) (chain, as listed by the source limits assumed): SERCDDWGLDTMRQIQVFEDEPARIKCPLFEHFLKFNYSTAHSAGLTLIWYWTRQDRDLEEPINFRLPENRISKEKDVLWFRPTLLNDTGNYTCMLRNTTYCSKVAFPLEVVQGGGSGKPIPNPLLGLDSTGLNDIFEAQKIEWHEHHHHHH

| Binder | A450 [1] [A450] | A450 [2] [A450] | A450 [3] [A450] |
| --- | --- | --- | --- |
| B1 | 0.046 | 0.046 | – |
| B2 | 0.045 | – | 0.045 |
| B3 | 0.047 | – | 0.045 |
| B4 | 0.048 | 0.048 | – |
| B5 | 0.046 | 0.044 | – |
